Results: a protein production outcome set (Wang et al. 2014)

Experiment: label from the status in PepcDB records

MVTVMRTLMPKIGRIAAKMTLCALCVAPMFSVQATELNWPEQPFRYYADNDSLKDLLNNFGANYRVSVSVSDKVNDRVSGRFTPEDPAEFLDYLAQVYNLMWYFDGAVLHVYKATETRSRLLQLELLTARELRSTLISTGVWDARYGWRAAENKGLVYLAGPPRYVELVVQTAEALESRLLQKSNSTDELFVELIPLKYASATDRSISYRDQSITVPGIASVLSRVVGGVQTQITDSASVQTSSVNGLPAEAAKPRGKTASVHGGATVEAEPGLNAIIVRDTQARLPLYRKLVAQLDQPQSRIEVALSIVDISANDLRQLGVDWRAGVSVGNNRIVDIKTTGDVDNGDVTLGSGQSFKSLLDSTNLNYLLAQIRLLESKGSAQVVSRPTLLTQENVEAVLNNSSTFYVKLVGKETAALEEVTYGTLLRIVPRIVGDRFATRPEINLSLHLEDGAKIPDGGVDDLPSVRKTEISTLATVKQGQSLLIGGVYRDEVSHQLRKVPLLGDIPYLGALFRSNTNTTRRTVRMFIIEPRIVVDGIGDSVLIGNEHDLRPSIGQLNNISNNSAEFKSVVEVFSCTSKTQAERYQQDLLSQQKSSLLTQCQLPSGQVGWRVKVAECDLSQAECVRPSEEP
protein production: failed

MLLKSIIPCMVKAFKFRLYPTTAQAVQLNQHIGSCRFVYNWALDQKIKTYEQTGKSISRFDLNKLIPTLKASNEWLGEVNSQSLQGMTKQVESAFTRFFRGKTGFPKFKSKKNPIQSFPVPQHYSVDFEKNTIKLPKIEPIKAVFHRKFEGELKTATVSRTCKGHYYISILVEDGKELPVKEAFAESTTIGIDVGIKDFAVLSNGEKIENPKYLKNSLKRLKVLQKRVSKKQKGSKNRAKAKQRLAVLHDKITNQRNDFQNKLSFKLISENQAVALETLNVKGMVKNHHLAQSISDSAWSSFVTKLEYKAEWFGKTILRIGQFEPSSKLCSVCGYHNKELQLKDREWTCPDCKTKHDRDINAAINIKKFALVDQNLIGLLEHHHHHH
protein production: not failed

MSQYQRLLLIADPQQHQSPAARRAVALARASGAALHALVFVEPPARTYLWEEHLEDSEREAYLQRHERWLQVEAQWMAEEGVQVTTQVIWSTQVLKDMLAYIDEFRPDLLIKDVTLESALKRVFVTPLDCHLLREAPVPVHLVNDAPHKLPRRIVAAVDPAQSDTQIRGLNTQIIQTAHALALQCDAQLHLLYAYDLMPMLDGVAPVASTAWSVNCLDELRDSLHKEFERLGDEHNVPQEFRHFIMGPPVPGIAQFVDEYLVDVVVMGTVHRTGFGRLIGSTTERALYSMPGSILAVKASGAA
protein production: failed

MKEIALLAIARYGDLIQTTPLVRALRRAHPGARITAIVEDRFCGILPLLPGIDRTIVLNKQDIAWDIATGDSPLVPYLKMDEFVRKLEEGSYDLLVNITCSRLSAFFASCVTSRRRTGISADEAGERNIVTLEHHHHHH
protein production: failed

MPFLFPKFWVMSAPHDTHVSRRLRRGLASACAVVTAIAAFSPAHAAPSPNKAGPMSGSTGRTTVGQLLTPAGQLTTLGDLPLNEALSPDGRYLIVSNNGQGTQSLQVIKTATGKVVQTIPYKSPESLYMGLAFSPDGTHLFASAAGNHKIRTYHFDCGKLVETSAIQMPVVSPKLTKVNLYPAGLAVTNDSKRLVVADQLADAVSVIDLATNKIQTTHIGHRPVWVTLSKDSTKAFVSSQGGADVAEVDITKSQPLATHKINVGFHPNKSVLTPDGKSLYVANGDADTISVVDVASHRQTATIPVNRNGSKLVGANPTGLALSQDGKRLYVTNSGHNEVAVINAATRKVIGDIPTGWYPTQVLAHDGKLSITSAKGLGAGPNNGPGHPNPTDPRDTAENQYSGSMIKGLLSTVNGMTQRPWPS
protein production: failed

MGWHFQQSVTMPSEWRTLALESDDSYNDFTVIMRRKLQENQVNVVNLEQNIPILRINKQITSDQVASIFKHGREAEKLLMLEVEATFRLANGESYPINAKVNRTFFDNARAALAKSEEREVIWNDMREQVARQLIVKIIALQNQIKRKLEHHHHHH
protein production: not failed

MSTNYIDCQLLNKMERQPSFSSFDCGDPFLDSFAPKKLANADANNDSRVYVAVDGDIGVGYATMKVFMLSNDEYKILSGKYPRQVPVVMLDQIAVDKAYQGKGIGKRLMRKVLEATVLVNELAAAKGLALWAHPRAKDFYESLGFEAIPDATKQVQDVELTLMFIHVETILDALK
protein production: failed

MQARWIGNMMFHVRTDSNHDVLMDTKEEVGGKDAAPRPLELVLTGLMGCTGMDVVSILRKMKVIDQMKDFRIEIEYERTEEHPRIFTKVHLKYIFKFDGEPPKDKVEKAVQLSQEKYCSVSAILKCSSKVTYEIVYEN
protein production: not failed
